From article PMC7166090, “A bacteriophage mimic of the bacterial nucleoid-associated protein Fis” (Biochemical Journal, 2020)

Tests used:
His-NinH R56A = target: T1, His-NinH R56A (Bacteriophage lambda (cI857 Sam7), UniProt P03771 1-68, A15T;R56A); experiment: AUC; sedimentation velocity, ~0.6 mg/ml protein, 4°C, 50 000 rpm, scans at 260 and 280 nm, SEDFIT
T1 sequence: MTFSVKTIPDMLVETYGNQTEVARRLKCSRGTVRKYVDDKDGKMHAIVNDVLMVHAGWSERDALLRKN

His-NinH S29A = target: T2, His-NinH S29A (Bacteriophage lambda (cI857 Sam7), UniProt P03771 1-68, A15T;S29A); experiment: as above
T2 sequence: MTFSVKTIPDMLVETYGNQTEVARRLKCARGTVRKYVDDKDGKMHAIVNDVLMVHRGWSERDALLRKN

His-NinH N18A = target: T3, His-NinH N18A (Bacteriophage lambda (cI857 Sam7), UniProt P03771 1-68, A15T;N18A); experiment: as above
T3 sequence: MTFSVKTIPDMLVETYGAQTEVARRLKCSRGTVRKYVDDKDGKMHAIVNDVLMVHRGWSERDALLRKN

[1] = target: His-NinH S29A R30A (bacteriophage λ) (UniProt P03771); experiment: as above
His-NinH K35A = target: T4, His-NinH K35A (Bacteriophage lambda (cI857 Sam7), UniProt P03771 1-68, A15T;K35A); experiment: as above
T4 sequence: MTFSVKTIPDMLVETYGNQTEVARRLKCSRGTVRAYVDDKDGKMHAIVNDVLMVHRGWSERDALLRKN

His-NinH T32A = target: T5, His-NinH T32A (Bacteriophage lambda (cI857 Sam7), UniProt P03771 1-68, A15T;T32A); experiment: as above
T5 sequence: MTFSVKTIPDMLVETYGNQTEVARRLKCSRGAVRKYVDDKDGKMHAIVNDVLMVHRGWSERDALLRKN

[2] = target: His-NinH R30A (bacteriophage λ) (UniProt P03771); experiment: as above
[3] = target: the molecule itself; experiment: SAXS; His-NinH in solution at 4 mg/ml, Xeuss 2.0 laboratory SAXS system
NinH (native, untagged) [4] = target: T6, NinH (native, untagged) (Bacteriophage lambda (cI857 Sam7), UniProt P03771 1-68, A15T); experiment: EMSA; two complexes; MST: PBS pH 7.4 + 0.05% Tween-20, 22 C; anisotropy: 6.7 mM Tris-HCl pH 8.0, 3.3 nM (so in the source) sodium acetate, 2 mM EDTA, 25 C; EMSA (32P): 50 mM Tris-HCl pH 8.0, 5 mM EDTA, 1 mM DTT, 5% glycerol, 100 ug/ml BSA, on ice; EMSA (Cy520): PBS pH 7.4, room temp; settings: protein: recombinant; tags: none; chain copies: 2; label: 5'-32P on strand 1; blunt
T6 sequence: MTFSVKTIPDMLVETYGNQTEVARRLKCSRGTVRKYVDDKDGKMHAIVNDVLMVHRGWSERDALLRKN

NinH (native, untagged) [5] = target: T6, NinH (native, untagged); experiment: EMSA; affinity similar to DS60, more second complex; MST: PBS pH 7.4 + 0.05% Tween-20, 22 C; anisotropy: 6.7 mM Tris-HCl pH 8.0, 3.3 nM (so in the source) sodium acetate, 2 mM EDTA, 25 C; EMSA (32P): 50 mM Tris-HCl pH 8.0, 5 mM EDTA, 1 mM DTT, 5% glycerol, 100 ug/ml BSA, on ice; EMSA (Cy520): PBS pH 7.4, room temp; settings: protein: recombinant, tags: none, chain copies: 2, label: 5'-32P on strand 1
NinH (native, untagged) [6] = target: T6, NinH (native, untagged); experiment: EMSA; similar to DS60; MST: PBS pH 7.4 + 0.05% Tween-20, 22 C; anisotropy: 6.7 mM Tris-HCl pH 8.0, 3.3 nM (so in the source) sodium acetate, 2 mM EDTA, 25 C; EMSA (32P): 50 mM Tris-HCl pH 8.0, 5 mM EDTA, 1 mM DTT, 5% glycerol, 100 ug/ml BSA, on ice; EMSA (Cy520): PBS pH 7.4, room temp; settings: protein: recombinant, tags: none, chain copies: 2, label: 5'-32P on strand 1
NinH (native, untagged) [7] = target: T6, NinH (native, untagged); experiment: fluorescence anisotropy; Hill 2.23; dimer concentration; MST: PBS pH 7.4 + 0.05% Tween-20, 22 C; anisotropy: 6.7 mM Tris-HCl pH 8.0, 3.3 nM (so in the source) sodium acetate, 2 mM EDTA, 25 C; EMSA (32P): 50 mM Tris-HCl pH 8.0, 5 mM EDTA, 1 mM DTT, 5% glycerol, 100 ug/ml BSA, on ice; EMSA (Cy520): PBS pH 7.4, room temp; settings: protein: recombinant; tags: none; chain copies: 2; label: 3'-fluorescein (C6 linker) on strand 1; blunt
His-NinH wt [8] = target: T7, His-NinH wt (Bacteriophage lambda (cI857 Sam7), UniProt P03771 1-68, A15T); experiment: fluorescence anisotropy; Hill 1.985; dimer concentration; MST: PBS pH 7.4 + 0.05% Tween-20, 22 C; anisotropy: 6.7 mM Tris-HCl pH 8.0, 3.3 nM (so in the source) sodium acetate, 2 mM EDTA, 25 C; EMSA (32P): 50 mM Tris-HCl pH 8.0, 5 mM EDTA, 1 mM DTT, 5% glycerol, 100 ug/ml BSA, on ice; EMSA (Cy520): PBS pH 7.4, room temp; settings: protein: recombinant; tags: N-His6; chain copies: 2; label: 3'-fluorescein (C6 linker) on strand 1; blunt
T7 sequence: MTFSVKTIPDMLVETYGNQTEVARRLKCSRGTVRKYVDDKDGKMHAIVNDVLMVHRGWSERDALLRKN

His-NinH wt [9] = target: T7, His-NinH wt; experiment: EMSA; two complexes; MST: PBS pH 7.4 + 0.05% Tween-20, 22 C; anisotropy: 6.7 mM Tris-HCl pH 8.0, 3.3 nM (so in the source) sodium acetate, 2 mM EDTA, 25 C; EMSA (32P): 50 mM Tris-HCl pH 8.0, 5 mM EDTA, 1 mM DTT, 5% glycerol, 100 ug/ml BSA, on ice; EMSA (Cy520): PBS pH 7.4, room temp; settings: protein: recombinant; tags: N-His6; chain copies: 2; label: 5'-32P on strand 1; blunt
His-NinH wt [10] = target: T7, His-NinH wt; experiment: EMSA; single complex; MST: PBS pH 7.4 + 0.05% Tween-20, 22 C; anisotropy: 6.7 mM Tris-HCl pH 8.0, 3.3 nM (so in the source) sodium acetate, 2 mM EDTA, 25 C; EMSA (32P): 50 mM Tris-HCl pH 8.0, 5 mM EDTA, 1 mM DTT, 5% glycerol, 100 ug/ml BSA, on ice; EMSA (Cy520): PBS pH 7.4, room temp; settings: protein: recombinant; tags: N-His6; chain copies: 2; label: 5'-32P on strand 1; fork 1:2, 31 bp duplex

## His-NinH R56A (from UniProt P03771 1-68) (natural protein)
His-NinH R56A
  stoichiometry N: 2

## His-NinH S29A (from UniProt P03771 1-68) (natural protein)
His-NinH S29A
  stoichiometry N: 2

## His-NinH N18A (from UniProt P03771 1-68) (natural protein)
His-NinH N18A
  stoichiometry N: 2

## His-NinH S29A R30A (from UniProt P03771 1-68) (natural protein)
[1]
  stoichiometry N: 2

## His-NinH K35A (from UniProt P03771 1-68) (natural protein)
His-NinH K35A
  stoichiometry N: 2

## His-NinH T32A (from UniProt P03771 1-68) (natural protein)
His-NinH T32A
  stoichiometry N: 2

## His-NinH R30A (from UniProt P03771 1-68) (natural protein)
[2]
  stoichiometry N: 2

B1: N-His6-NinH (bacteriophage λ NinH, wild type) (natural protein)
chain: MTFSVKTIPDMLVEAYGNQTEVARRLKCSRGTVRKYVDDKDGKMHAIVNDVLMVHRGWSERDALLRKN
[3]
  stoichiometry N: 2

B2: DS60 (dsDNA)
DNA 1: TTTGGTCTAACTTTACCGCTACTAAATGCCGCGGATTGGTTTCGCTGAATCAGGTTATTA
DNA 2: TAATAACCTGATTCAGCGAAACCAATCCGCGGCATTTAGTAGCGGTAAAGTTAGACCAAA
NinH (native, untagged) [4]
  binding result: binds

B3: BT1 (dsDNA)
DNA 1: TTTGGTCTAACTTTACCGCTACTAAATGCCGCGGATTGGTTTCGCTGAATCAGGTTATTA
DNA 2: TAATAACCTGATTCAGCGAAACCAATCCAGCGGCATTTAGTAGCGGTAAAGTTAGACCAAA
NinH (native, untagged) [5]; 1 extra A bulge in strand 2
  binding result: binds

B4: BB13 (dsDNA)
DNA 1: TTTGGTCTAACTTTACCGCTACTAAATGCCGCGGATTGGTTTCGCTGAATCAGGTTATTA
DNA 2: TAATAACCTGATTCAGCGAAACATTGTAGGTAAGCTTAGTAGCGGTAAAGTTAGACCAAA
NinH (native, untagged) [6]; central 13 nt bubble
  binding result: binds

B5: BT2 (dsDNA)
DNA 1: TTTGGTCTAACTTTACCGCTACTAAATGCCGCGGATTGGTTTCGCTGAATCAGGTTATTA
DNA 2: TAATAACCTGATTCAGCGAAACCAATCCAAGCGGCATTTAGTAGCGGTAAAGTTAGACCAAA
NinH (native, untagged) [5]; 2 extra A bulge in strand 2
  binding result: binds

B6: BB5 (dsDNA)
DNA 1: TTTGGTCTAACTTTACCGCTACTAAATGCCGCGGATTGGTTTCGCTGAATCAGGTTATTA
DNA 2: TAATAACCTGATTCAGCGAAACCAATCGCAACCATTTAGTAGCGGTAAAGTTAGACCAAA
NinH (native, untagged) [6]; central 5 nt bubble
  binding result: binds

B7: BT3 (dsDNA)
DNA 1: TTTGGTCTAACTTTACCGCTACTAAATGCCGCGGATTGGTTTCGCTGAATCAGGTTATTA
DNA 2: TAATAACCTGATTCAGCGAAACCAATCCAAAGCGGCATTTAGTAGCGGTAAAGTTAGACCAAA
NinH (native, untagged) [5]; 3 extra A bulge in strand 2
  binding result: binds

B8: BB1 (dsDNA)
DNA 1: TTTGGTCTAACTTTACCGCTACTAAATGCCGCGGATTGGTTTCGCTGAATCAGGTTATTA
DNA 2: TAATAACCTGATTCAGCGAAACCAATCGGCGGCATTTAGTAGCGGTAAAGTTAGACCAAA
NinH (native, untagged) [6]; central 1 nt mismatch
  binding result: binds

B9: BB20 (dsDNA)
DNA 1: TTTGGTCTAACTTTACCGCTACTAAATGCCGCGGATTGGTTTCGCTGAATCAGGTTATTA
DNA 2: TAATAACCTGATTCAGCGAATGACCGATAACGTCCACTTGAGCGGTAAAGTTAGACCAAA
NinH (native, untagged) [6]; central 20 nt bubble
  binding result: binds

B10: DS20 (o-FLU20/o-SS20) (dsDNA)
DNA 1: TGGGTCAACGTGGGCAAAGA
DNA 2: TCTTTGCCCACGTTGACCCA
NinH (native, untagged) [7]
  Kd: ~57 nM
His-NinH wt [8]
  Kd: 43 nM

B11: DS50 (dsDNA)
DNA 1: GGCGACGTGATCACCAGATGATTGCTAGGCATGCTTTCCGCAAGAGAAGC
DNA 2: GCTTCTCTTGCGGAAAGCATGCCTAGCAATCATCTGGTGATCACGTCGCC
His-NinH wt [9]
  binding result: binds

B12: Forked duplex FD (structured_DNA)
DNA 1: GGCGACGTGATCACCAGATGATTGCTAGGCATGCTTTCCGCAAGAGAAGC
DNA 2: GGCTTCTCTTGCGGAAAGCATGCCTAGCAATCCTGTCAGCTGCATGGAAC
His-NinH wt [10]
  binding result: binds
